Test results taken from the supplement of paper PMC9732359.
± gives the uncertainty stated by the source.

assay: protein stability index of a GFP-peptide fusion (yeast GPS) (PSI 1-4); higher = more stable; sorted into four equal gates, so the index is relative within each strain; settings: san1∆
Outline: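 For each peptide, the protein stability index sums the read frequency in every gate after multiplying it by the gate number. Read frequencies came from plasmids that were PCR-amplified from each gate and Illumina-sequenced, with reads assigned to strains by barcodes. The gates were four equal bins of GFP/Cherry fluorescence ratio applied to mid-log yeast in leucine-free medium carrying a pooled library of tiled 17-residue yeast protein peptides fused downstream of GFP on a Cherry-expressing plasmid.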

Sequence | protein stability index
ILDGQDVEENRSEFIES [YJR042W/NUP85] | 3.48 ± 0.072

same assay, conditions: ubr1∆

Sequence | protein stability index
HESYCLPMDTNLFKINS [YMR129W/POM152] | 1.37 ± 0.067
HEYIRHLALEIGEVYND [RPN1] | 1.54 ± 0.077
HFTEIKLNKVDKNELQQ [SIR3] | 3.07 ± 0.049
HGINLQNKKNLKWVAVV [SSN2] | 3.23 ± 0.057
HGQLKLSIQYMIQKVME [RPN5] | 2.84 ± 0.085
HHDGKLWNLNAYRTDVI [PRP8] | 3.07 ± 0.071
HIKKLLHQYYGDDESKI [FAS1] | 3 ± 0.12
HILLTELLAYQFASPVR [FAS2] | 1.768 ± 0.017
HINSILLARVIQMNNSL [SNF11] | 1.7 ± 0.092
HIQVNQAPKQRRRTYRA [RPL17A] | 3.28 ± 0.14
HKLVFVVRIKGINKIPP [RPL7A] | 1.64 ± 0.053
HKMSMMAHRVKVIPYST [RPO21] | 2.44 ± 0.084
HKSDVMSVDIDKKASMI [ASC1] | 2.87 ± 0.11
HKVSSQSTNLNRSAKNS [YCS4] | 2.32 ± 0.05
HLELYTSQYGTPSTETA [PRE3] | 1.64 ± 0.037
HLGKGTMTMDVFNDAHV [RPN1] | 2.87 ± 0.081
HLLLGFQVSNVISLGPN [YJL039C/NUP192] | 1.8 ± 0.042
HLLRQTNAFLDSLTRAV [SNF2] | 2.65 ± 0.033
HLSKSPADRPQGRRNSR [SIR4] | 2.78 ± 0.058
HLVMRAISLGLLKGSID [RPN9] | 1.79 ± 0.16
HNHDTGCDENDSTVNKS [YDL088C/ASM4] | 3.05 ± 0.068
HNSHLSLNYKFTTNKSK [SRP21] | 2.41 ± 0.05
HPLHELIIQYPPNNARR [ISW2] | 3 ± 0.047
HPPFIKYACLAIRKNGQ [SIN4] | 1.42 ± 0.031
HQNESSAASIPPQQTYH [RPN4] | 2.69 ± 0.057
HQQQQQQQQQQQQQQQQ [SNF5] | 2.93 ± 0.055
HRINMDKYHPGYFGKVG [RPL28] | 3.24 ± 0.068

Sequence | protein stability index
HSFAVLLHERKLLNDLA [NUT1] | 2.71 ± 0.036
HTEDESTKELKFSDIIQ [BRN1] | 3.41 ± 0.094
HTIFSDVCKTRFNHLVT [YML031W/NDC1] | 2.04 ± 0.034
HTSIRETLENGETRMKM [SMC2] | 2.95 ± 0.083
HTVTNSPNPTLQPVIPG [SNF5] | 2.78 ± 0.042
HVKRITKIAQSQTMAET [ECM29] | 2.07 ± 0.033
HVLKKNPLKNKQVLLRL [RPL4A] | 2.38 ± 0.088
HVLVGDLIKFSAETLSE [FAS1] | 2.79 ± 0.089
IAAKLINSGLYSVLLES [YML103C/NUP188] | 2.67 ± 0.095
IAAKTHILRISFLDRKR [SIN4] | 2.42 ± 0.049
IAEGKSKQDASPKPYAV [RPL8B] | 3.23 ± 0.049
IAINFTVNHSEKFPNDV [RPP1] | 3.02 ± 0.058
IALLTLKESVEGEFNGD [PRE8] | 2.75 ± 0.11
IASDGSYVNYRHMALLV [RPO21] | 1.59 ± 0.038
IASEVLIKQVPRLLGPQ [RPL1A] | 1.67 ± 0.068
IATGCKDGRIRIFKITE [YGL100W/SEH1] | 2.43 ± 0.046
ICGYTRKEGPTIYYVDS [PRE2] | 2.84 ± 0.069
ICNPVHKHREARGLTAT [RPL15B] | 2.42 ± 0.062
ICYNKKTEYVLNDLNHL [REC8] | 1.88 ± 0.19
IDATLKEELLRDGVLTV [RRP45] | 2.04 ± 0.045
IDDKTQNDELTMGMRAL [DIS3] | 3 ± 0.059
IDDVQTIKVVKRSMDAE [RPP1] | 3 ± 0.051
IDHSDESNRQSVIVDSK [ESC2] | 3.51 ± 0.15
IDIPLDEQAFYNKDKAE [RPC37] | 3.26 ± 0.14
IDNGAESSENEAEDDDN [RPC53] | 2.81 ± 0.16
IDWASPEYGRIIASASY [YGL100W/SEH1] | 2.71 ± 0.055
IDYLQRNDKTLELMDSK [POP1] | 3.24 ± 0.14

Sequence | protein stability index
IECFKPGDIVRAQVLSL [CSL4] | 2.39 ± 0.16
IEDPNLSSNITFDGKPT [YMR153W/NUP53] | 3.17 ± 0.05
IEEKLSSFSKKTLTEEV [YIL149C/MLP2] | 3 ± 0.048
IEEQGDALQDVEESSEK [DPB4] | 3.41 ± 0.075
IEIEDEKVSSVLSALEG [RPP2A] | 2.449 ± 0.024
IEITNSNDLCSQIFDQL [SRB8] | 2.74 ± 0.043
IEKCLKASELKLALGIA [RPN2] | 2.69 ± 0.24
IELKTDWVRFLALALGI [RPN1] | 1.13 ± 0.067
IEPQVINYLALNAANYN [ECM29] | 2.33 ± 0.078
IEQSITKNIPITHRDLH [SSN8] | 2.78 ± 0.036
IESNKLAGVLYESRNVA [RRP6] | 3.08 ± 0.062
IESQNLDLIPHSSSVFK [SRB4] | 2.73 ± 0.038
IETLDPALIRPGRIDRK [RPT2] | 3.02 ± 0.2
IFERMIEKCLKASELKL [RPN2] | 1.85 ± 0.079
IFKDLVTVFLFMLILAL [COB] | 1.17 ± 0.025
IFRGSLIGCIPYSKNAV [YDL088C/ASM4] | 2.19 ± 0.068
IGGRRFSEGTSADREIQ [RPT4] | 2.77 ± 0.19
IGKDTFVTRKSRKRAKK [PRP8] | 3.25 ± 0.049
IGKMYDEYLGSHTDQPA [NNF1] | 3.28 ± 0.086
IGLVKCTQMTDEGLLNM [GRR1] | 2.91 ± 0.043
IGVVSLTNGVTEHVRQN [RRP6] | 3.33 ± 0.063
IHEIDERLAKVNEMNDQ [NNF1] | 1.96 ± 0.061
IHLLHDDRGPVLESIVA [BRR2] | 2.63 ± 0.11
IHYSWSFILYYRRALQS [YML103C/NUP188] | 1.12 ± 0.082
IIDAKTRNEQTTIQTEK [MCD1] | 3.01 ± 0.06
IIDEIKCIPKKGTVFQF [POP4] | 1.3 ± 0.048
IIEKITDQILQLLKEDS [RRP45] | 2.37 ± 0.13

Sequence | protein stability index
IIFQQLLFWTDPRNLVN [YCG1] | 2.13 ± 0.11
IILPLDNATLTELVDKA [SSN2] | 1.95 ± 0.26
IIQLILWSIHPSRQFDH [SRB8] | 1.54 ± 0.05
IIRPILGKVRFANYKLL [SRB4] | 1.73 ± 0.057
IIRQLSELNEGNLSKRE [SRB8] | 3.42 ± 0.27
IISRLNADFQKPWFATV [FAS1] | 2.96 ± 0.069
IISTAIADSTHVKRITK [ECM29] | 3.13 ± 0.078
IIVENSGTSGDEDVDVL [RPN2] | 3.52 ± 0.095
IKCSQSSHLSDNDFIIN [POP5] | 2.55 ± 0.041
IKEIINASKVISTPIIN [RPO31] | 1.53 ± 0.25
IKIFELKLPADATTWRY [IRR1] | 2.39 ± 0.046
IKKFAKLHMGTDDVRLA [RPL31A] | 1.58 ± 0.037
IKKYASVVRVLVHTQIR [RPL3] | 2.13 ± 0.044
IKLSLKDKTKNISAEII [SMC4] | 3.11 ± 0.082
IKNISNRVGLTLDNIDD [ARP9] | 3.32 ± 0.073
IKPKPLWSGKQILSVAI [RPO21] | 1.62 ± 0.064
IKQQQQQQQQQNGQQPP [YML103C/NUP188] | 2.39 ± 0.034
IKRMAIRNIVEAAAVRD [RPS26A] | 1.93 ± 0.055
IKSGVAKLESLLENSVD [MTW1] | 3.4 ± 0.075
IKTRDACPLDNQPWQLA [HRT1] | 3.12 ± 0.049
IKWENAFVSVYSKNNPN [PRP8] | 2.61 ± 0.031
ILCIFEGEKCHPQDFGN [SEC65] | 2.44 ± 0.053
ILDFGPGGASGLGVLTH [FAS1] | 2.84 ± 0.2
ILDGQDVEENRSEFIES [YJR042W/NUP85] | 3.27 ± 0.038
